In data set [1] the target is T1, human LPL^S132A/R297A (inactive lipoprotein lipase mutant) (human, UniProt P06858 28-475, S132A | R297A).
T1 sequence (looked up): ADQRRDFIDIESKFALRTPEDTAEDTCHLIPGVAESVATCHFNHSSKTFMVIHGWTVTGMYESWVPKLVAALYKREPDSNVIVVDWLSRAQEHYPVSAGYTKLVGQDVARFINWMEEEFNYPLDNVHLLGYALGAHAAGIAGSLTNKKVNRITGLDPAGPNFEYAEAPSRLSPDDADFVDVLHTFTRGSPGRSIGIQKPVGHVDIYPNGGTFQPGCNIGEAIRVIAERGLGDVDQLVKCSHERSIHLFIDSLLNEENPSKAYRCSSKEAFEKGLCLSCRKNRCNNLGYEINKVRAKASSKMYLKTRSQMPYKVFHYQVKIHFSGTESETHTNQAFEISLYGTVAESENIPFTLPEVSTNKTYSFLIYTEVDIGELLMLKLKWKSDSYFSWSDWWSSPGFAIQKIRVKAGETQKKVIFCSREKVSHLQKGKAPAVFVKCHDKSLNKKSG
Put plainly: HDX-MS.

The target in data set [2] is T1, human LPL^S132A/R297A (inactive …). Put plainly: cell-based or functional assay.

B1: soluble truncated human GPIHBP1 (residues 1 to 131) (domain or fragment, UniProt Q8IV16 21-151, looked up)
chain: QTQQEEEEEDEDHGPDDYDEEDEDEVEEEETNRLPGGRSRVLLRCYTCKSLPRDERCNLTQNCSHGQTCTTLIAHGNTESGLLTTHSTWCTDSCQPITKTVEGTQVTMTCCQSSLCNVPPWQSSRVQDPTG
Regarding B1, the binding result in data set [1] was “binds”.

B2: APOC2^wt (apolipoprotein C2, N-terminal 6xHis-tag) (natural protein, UniProt P02655 23-101, looked up)
chain: TQQPQQDEMPSPTFLTQVKESLSSYWESAKTAAQNLYEKTYLPAVDEKLRDLYSKSTAAMSTYTGIFTDQVLSVLKGEE
As to B2, the “onset of LPL aggregation (turbidity, proxy for Tm) against APOC2^Q70E” value in data set [2] was above 20 °C.

For the origin of these results see article PMC10160976 (Proceedings of the National Academy of Sciences of the …, 2023).
